Measurements as given in the DeepSol protein solubility set.

test: soluble on expression in E. coli; label from the status in PepcDB or PDB records

**Q.** For “MGSDKIHHHHHHMPLYLKNHSYGEYVFDWAWANAYERAGHDYYPKLLSAIPFSPVTGKRLLAQTSEQRALLVSTALAIVRKGNAGAGMSSLHCLFPLEHEAREMERAGMMLRCGVQFHWKNRPGRGYENFEDFLGGMSYSKRKKIRQERRKVQDLGIHFEWLSGNDMDEDRWNFFIDCYNNTYREHHSRPYLNLEFFLRLGKSMPENILLILALQNKKPIGVAFNIHNSHTLYGRYWGAREFVPGLHFETCYYQAIQYCIANGLSLFEGGAQGEHKLARGFLPVRTWSAHWLVHSEFAAAIEGYLERETRDIDRYIHALEESAPFRKDARESE”, which “soluble on expression in E. coli” value is on record?
**A.** Its value is “not soluble”.

**Q.** For “MGSDKIHHHHHHMPRDLPPLNALRAFTAAAKRLSFTQAAEDLGVTQAAVSHQIRGLEDWLGVALFRRRNKQVVMTEAGQVYALAIGQALDEIAEATAALVRNDPRAGMLTISTMPSFAIKWLVQRLGGFINANPDIEVRLHTTRELVNFATEGIDVAIRMTREVGDDLHADLLLEEELFPVCSPALMRGIRPLRQPSDLSQHLLLQDVGISWVSWLDPAGALDVRPARGPGYLDSALAIQACIESQGVMLGRTVMVEDDLKAGRLVEPFTLRVPSPMKYWLVCPPGHLARPGVRAFREWILAEASKWTKARSSAHGVED”, which “soluble on expression in E. coli” value is on record?
**A.** The value was “not soluble”.

**Q.** With “MGSDKIHHHHHHMPRGDIGIDLGTASIIVYKRGEGIVLHEPSVVAISEKTGEIVAIGEEAKKMLGKTPEGLKAIRPMKDGVIADYRMIEAIIRNFLKKIIGRFSFVKPSLIIGVPTKITEVEKRAVFEAGLNAGARRVHIVSEPIAAAIGAGIDVMASEGNMVVDIGGGTTDIAVISLGGTVVGESVRMAGDAMDEAIVKFIRKKYGLIIGESTAEEIKKRIGKTHPAFENYEIEIKGRDVVTGLPRTDRVSSEDVREAIEPIIFALLTKLKNVLERTPPELSADIINNGIRLTGGGALLRGLDRTIYDEIHVKTIVADDPITCVARGTGILLEDEKLLKTVCETYSR” as the sequence, how does the “soluble on expression in E. coli” value read?
**A.** The value was “not soluble”.

**Q.** With “MGSDKIHHHHHHMPRVIKHPEIRREDILDHAQALFLTQGYDRASLNDVIASAGISKGAFYHYFASKEALLEALADRFARQALAGVQGVVDDPGLDPLGRLNGLLSQSRQAKIETAAEAWALFETMFRPENLVLFHRINLAANASFSPLLVKIIRQGVEDGTFRTFDPEGVADIVMQFGLATHDVVAKAIAGGSDADMEVAIEVLEKRVRLYEIALDRILGLPDGSIRIGEPGYIRAVMTARRKADKAR” as the sequence, how does the “soluble on expression in E. coli” value read?
**A.** Its value is “not soluble”.

**Q.** Which “soluble on expression in E. coli” value does the source give for “MGSDKIHHHHHHMPSGGVLPVGVHATPMSVREEFDEWAASGRDKGMEDRHWHTAKDVLARMPVEDDDTVLDLGTGSGYAVRALRERGVARGYGLDGAPEMAANARTYTDDDDLAYVVGDFGSLPFADDAIDHVFSFEAFYYASDPRETLAEIRRVLKSGGTFYCGVNYYEENVHSHDWQDSISVEMTRWDRATYREAFRGAGLHVAAQDLIADTEIDIPAASEFPHEGFDSRADMVERYRTFGTLLTVGVAP” here?
**A.** Its value is “not soluble”.

**Q.** Which “soluble on expression in E. coli” value does the source give for “MGSDKIHHHHHHMPSPLLRRENKIKILRYILKNGKTTRNQLASNLNLAHSTLSYIIDELLDEGFLVFEEIKKKRGRPYQILSVNPEKFTAIGVKVGREEVRGVLFDARMNPLKEHRVQILSGMRNNDGYTRALRETIEQLRSENLLGVGICSSGIVKEGRVVVSHVMNVKDWDPRKVLKDLERILVMNDSDALCREISQRVNTDFLLVSYGVGIGASLWKDKKIHHIEMGHMLAASEGKCYCGQTGCLEYHSSEYAVLKSYLGKEIDFEDFITSEEEKYRQTIEELREKAREDFDSVKVHYEKAFKTFSVVLGNVIMGSGVSRVFFAGEGVVSEEMVKILEELVKVRFNRDFVGEVQFQVADANWMLGAARAVVDKYLPYIVK” here?
**A.** Its value is “not soluble”.

**Q.** For “MGSDKIHHHHHHMPSWFTNVQLGFDMATSLTIVGAAVTWVIREKKQAEAEKVRGINQQVRSTSLKKVQDVLFEMEDKFSVLINETQTYENMIDNRVRKVNDQLDFSRLNLAIKRDDQFLIKAIDRLQAIREELGQFYELIQVRRYSLIPLLDAIEEGDKYIGVFQQNIDEVGDAYNQVTSGNVSLLKELEAVISMLNKQFGDELVDVSDEVKKELFQKISTDETFMKPIQSIIYDEDYFYWVQRFVPAGREDDYLEKVVRPSKIEDKELCSEVMVHFILALIGKNHELISQVLRTASGSVMKARIECKDILISLSAISHKLVMDNNGETLEKVIAKYESEEYFGRNVTIR”, which “soluble on expression in E. coli” value is on record?
**A.** Its value is “not soluble”.

**Q.** For “MGSDKIHHHHHHMPVGRGVSVGLLPKSQSPLIGVDISSTAVKLLQLSRSGNRFRVEHYAVEPLPPNAVVEKNIVEVEAVGEAIRRAINRSGSKAKNAAAAVAGSAVITKLIPMPADLDDSDLEAQVELEATNYIPYPIEEVNLDFEVLGPMPNSPDMVQVLLAASRSENVELRQSALELGGLVAKVMDVEAFAVENAFALVASELPVAADAVVALVDIGATMTTLSVLRSGRSLYSREQVFGGKQLTDEVMRRYGLTYEEAGLAKRQGGLPESYEVEVLEPFKEATVQQISRLLQFFYAGSEFNRVDCIVLAGGCAALSRLPEMVEEQLGVTTVVANPLAQMTLGPKVQAHALALDAPALMIATGLALRSFD”, which “soluble on expression in E. coli” value is on record?
**A.** Its value is “not soluble”.

**Q.** With “MGSDKIHHHHHHMPVRRIALITNGYPDIYARERSFILPELKALLAYGHQVTLVPVREVTEVDPDLPDGVAVERRLAHLYRPWQLPATVLWMMFRGYFWREAWQCLGRGRLRYLGHFFKESVRATNTLRMQSALRDYDVLYTYWFKGESTGISLMPGTHARRLTRAHGYDLYEDRPNNEGYIPYREMTLPRLDRVVVLSEEARAYLEQRYPASVGRTVVSPLGVAHESDENPGPEADRIVLVSCSYPTPNKRLPLIGQLAAAVACARPSVKVVWMHFGCRREEAGLPVDFAGPPNLSVQFAGEAPNEHIRRWYATRPVSFFVNLSQSEGQPVSIMEAMAFGIPVMATGVGGIPEMLRHGGGMTLPEQPDVNAVAREMLSLLDDPSRYQAMREAARETQLAYFNTSANHRTLADLIGEF” as the sequence, how does the “soluble on expression in E. coli” value read?
**A.** Its value is “not soluble”.

**Q.** Which “soluble on expression in E. coli” value does the source give for “MGSDKIHHHHHHMPYTTYRQQAVDEQTLAQTELNQYIADQAQVIAPEEYTSVEINFYYHEIYISSQLIAQIAYDHNEFVTQRWLVLVNDKEEFRANTWAKCYRYICTHHKDGSLPVQERETPAATTGNEIMVQIADECENLGLELLEDGIYRGDQKLGKAGQTNGNWWFIRTDDATQQQRFCNSASDAMWLVSRAELPEYTDTLNEYLQYRPLEQMPSVELKHLLDSAELTAA” here?
**A.** Its value is “not soluble”.

**Q.** Which “soluble on expression in E. coli” value does the source give for “MGSDKIHHHHHHMQAEKLMQVKDAVLKLRQQLRAGQIYQSLPSRMATLIKQLPSTVTTTVTIPSDEEVLPLIATLHEQLKKGTLTAMSDDQIKLLMAHVGSLNPLVRDQGVYYLLNEALQQQVLTPEQLGDIFDQLIQDQMLFAHIDEPQNDAIYQRSFAILLLSVLLYADHAGLKFMTPARLDLVVEQMTVYILLEKDTRGFVGTTGWAHAYTHIGNILDELADESQLARADKLLLLAALIARYQKLTTPLIFGEPERLSTYLTLITNKHELYCDYLLTAMKDWHQQLMMHTRPASEAEWTQIFNRNRLLEALALHDDLPTAVVDYLDDELEFLG” here?
**A.** The value was “not soluble”.

**Q.** Which “soluble on expression in E. coli” value does the source give for “MGSDKIHHHHHHMQDTKYYEPTNIFRQPAINIKKRSDKKRILQSMMTLSTYKKTWQNNTSKMNSPILRKASDNFNDYYTTKKLKSDYWKLYGVDESELSIPSDMSIVDNILLVSTMNEKDNLKLFEISAEKKLKELQTITVPGKPITCICLLPMVDFPPQIFPSSQINPNHNQLILTGHQDGIVNLIATSTYKGCAKIIKRFNHNKFLKSTVSTSIPILEITPKTAPILKVSPWNKTGFVSLLNDSLFIYDLKSNLDCIKTPIFLQSYPGINSFAVNEFHDPFLLALVGSKFGPNGISLLDLRTNLYIPDILDNSISAGCGKDHLQRKNTSLDCVWISNHHVAQSLNDKIQIWDIQSCDGKPVCELYAKKGYIESLKFNENTGALYSSDDQGFVICWDLQNLQNMKYGELVHGFNSISLDSESELLLTKQVFQCGNIIVSGMSDKNICLKSNDTKANGKGCGFLFLDMANDGSLVTLDNFCELGLHQICQVQFNVDTGKIIDGNGTGKSGISDSSMLSLSNESDHSMTETSDDMFSNSGNWDCSSANTVSEGRLNDDQEDIVFTKRMYSVNDVHLSGSTIDTTVV” here?
**A.** Its value is “not soluble”.

**Q.** For “MGSDKIHHHHHHMQELCSSVVLRKHSWIQYNAMSDTVIKVEKLSKEYRLGTINHGFLFRDLQSWWARRRGKEDPNSLITTYQQHLVSDDNSRLSGGRFLALDDLTFEVRQGDALGIIGRNGAGKSTLLKIISKVTSPTSGVVKIRGRVASLLEVGTGFHPELTGRENIYLNGAISGMNKKEIKNKFDEIVAFSGVEKFIDSPVKRYSSGMYVRLAFAVAAHLGPEILIVDEVLAVGDIQFQKQCLGKMDDISKGGRTVVFVSHSLQTIASLCRECILLDQGKIKKRGLPSEVILEYLGEGGSSCADFTKLGRTVGDNFVQLVMGIVQDANNEVITEIDIREPLKISMHFTVKQDTSIRYIPNFHFTVPGGTYAFVSSPSSISELSSGNYIATCNIPGNFLNEGTYYVGLAITSYEPGMTIHFFEPNVLTFSIRDPMENCVGRYGFGYANVMPGIVRPNLDWDVRKSG”, which “soluble on expression in E. coli” value is on record?
**A.** Its value is “not soluble”.

**Q.** Which “soluble on expression in E. coli” value does the source give for “MGSDKIHHHHHHMQELLCDRGKGRHADPMQNKPDTPPLSRFHQFRTADLDEARALVARNFCGHRLERQAREDAFDACQNRAGGNGLFYNYIRYGADVEIEPGELGSFYLIQVPIRGQALIRNGRTEVETGSAIASVLNPDRHTRMRWLAGCEQVLLQIDRNRLTAVAETLTGTALQSPVRFDPQIDRARPEMQRWLALFRRAVSAVDHGALLDPDQALSRALVEDELIAGFLRAQPSSIAPLLERPETGPLSPHVRRARDFMQAHLADPLTLSQIAAAAGTSPRNLQLGFSQLLEMTPLAYLRVLRLNYARYLLRESPPQVTIASIAGAAGFSHLGRFSAQYAARFGEGPSQTRKQHYLI” here?
**A.** The value was “not soluble”.

**Q.** With “MGSDKIHHHHHHMQFEMHDHVKGKAMSYPVTSQPQCANTCYQTQLSDWHTGLTDCCNDMPVCLCGTFAPLCLACRISDDFGECCCAPYLPGGLHSLRTGMRERYHIQGSVGHDWAALTFCLPCALCQMARELKIRE” as the sequence, how does the “soluble on expression in E. coli” value read?
**A.** Its value is “not soluble”.

**Q.** With “MGSDKIHHHHHHMQFGAKPLFENISVKFGGGNRYGLIGANGCGKSTFMKILCGDLDPSGGNVSLDVNERLGKLSQNQFGYEEFNLIDTVIMGHRELWKVKQERDRIYSLPEMSEEDGITVANLEMDFAEMDGYTAESRAGELLLGVGIGIDSHFGLMSEIAPGLKLRVLLAQALFSDPDVLLLDEPTNNLDIDTIRWLQDMLNQRSSTMVIISHDRYFLNSVCTHMADLDYGELRVYPGNYDEYMQAATQARERLLSDNAKKKAQISELQTFVARFSANASKAKQATSRARQIDKIKLDEVKASSRVNPFIRFEQEKKLFRNALVIENLTKGYDTPLFKDLNLIVEVGERIAVLGENGVGKTTLLRTLIHDIPQDAGTIQWSENANIGYYAQDHESDFANEMTLFEWMSQWRKPEDDDQSVRGILGRMLFGSDDIKKSVKVLSGGEKGRMLFGKLIMQKANILVLDEPTNHMDMESIESLNNALEMYEGTLIFVSHDRAFVSSLANRILEVTHTGVNDFRGTYDEFLASKGIEV” as the sequence, how does the “soluble on expression in E. coli” value read?
**A.** The value was “not soluble”.

**Q.** Which “soluble on expression in E. coli” value does the source give for “MGSDKIHHHHHHMQIGEVYFWTSTIKDWKNLLHQDKYKLLIIHCLKELVDRKMIKVYAFVIMPNHIHIVWEMLDQNGKEMPHASFNKKTAHEIVKDLKFNHPLVLPFFKVNEKEREYRIWQRDPLAIEMDSKKKAEQKIDYIHKNPLHERWNLAASPEEYYWSSAMYYQTGEDKFGFLTHYMERF” here?
**A.** Its value is “not soluble”.

**Q.** For “MGSDKIHHHHHHMQIRADFDSGNIQVIDASDPRRIRLAIRPDLASQHFQWFHFKVEGMAPATEHCFTLVNAGQSAYSHAWSGYQAVASYDGERWFRVPSQYDADGLHFQLEPEESEVRFAYFEPYSRERHARLVERALGIEGVERLAVGTSVQGRDIELLRVRRHPDSHLKLWVIAQQHPGEHMAEWFMEGLIERLQRPDDTEMQRLLEKADLYLVPNMNPDGAFHGNLRTNAAGQDLNRAWLEPSAERSPEVWFVQQEMKRHGVDLFLDIHGDEEIPHVFAAGCEGNPGYTPRLERLEQRFREELMARGEFQIRHGYPRSAPGQANLALACNFVGQTYDCLAFTIEMPFKDHDDNPEPGTGWSGARSKRLGQDVLSTLAVLVDELR”, which “soluble on expression in E. coli” value is on record?
**A.** The value was “not soluble”.
